localisation_or_trafficking, other and expression_or_secretion data for five substances are collected here from PMC4013067.

For the data set the following is noted: N-glycosylation at N138.

Turning to “nicotinic acetylcholine receptor β4 subunit: M467V+S140G, co-expressed with α3”, the localisation_or_trafficking entry is recorded as “decreases, relative surface ELISA 0.17±0.02 vs 1.00 (WT), P<0.001”.

Regarding “nicotinic acetylcholine receptor β4 subunit: S140G (sequon disruption), co-expressed with α4”, the localisation_or_trafficking entry is “abolishes, relative surface ELISA −0.13±0.22 vs 1.00 (WT), P<0.001”.

In the case of “nicotinic acetylcholine receptor β4 subunit: S140G (sequon disruption), co-expressed with α3: nicotine EC50”, the other entry was “changes, nicotine EC50 22±4 µM (WT) to 48±4 µM, P<0.05; ACh EC50 not significantly changed”.

Consider “nicotinic acetylcholine receptor β4 subunit: S140G (sequon disruption), co-expressed with α4: ACh and nicotine EC50”, for which the other entry is recorded as “changes, ACh EC50 9.36±1.35 to 16.7±2.1 µM (P<0.01); nicotine EC50 1.48±0.17 to 2.75±0.27 µM (P<0.01); sag to ACh 0.90 to 0.76 (P”.

On to “nicotinic acetylcholine receptor β4 subunit: S140G (sequon disruption), co-expressed with α3”, for which the expression_or_secretion entry is “no change” and the localisation_or_trafficking entry was “abolishes, relative surface ELISA −0.04±0.05 vs 1.00 (WT), P<0.001”.
